Measured values reported in paper PMC3936728.

T1: MepR WT (Staphylococcus aureus, UniProt Q5Y812 1-139)
T1 sequence: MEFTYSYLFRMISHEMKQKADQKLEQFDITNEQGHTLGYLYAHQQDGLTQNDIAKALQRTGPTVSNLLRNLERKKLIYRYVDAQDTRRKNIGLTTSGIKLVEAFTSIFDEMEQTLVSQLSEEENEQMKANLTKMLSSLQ

T2: MepR (crystallization) (Staphylococcus aureus, UniProt Q5Y812 1-139)
T2 sequence: T1 sequence

B1: 14 bp mepR site (dsDNA)
DNA 1: GTTAGACATCTAAC
DNA 2: GTTAGATGTCTAAC
B2: 27 bp mepR, scrambled recognition helix region (dsDNA)
DNA 1: TATTTACTATGTGTATCTAGGAAATGG
DNA 2: CCATTTCCTAGATACACATAGTAAATA
B3: 24 bp palindromic mepR operator (dsDNA)
DNA 1: ATTTAGTTAGATATCTAACTAAAT
DNA 2: ATTTAGTTAGATATCTAACTAAAT

Tests used:
MepR WT = molecular target: T1, MepR WT; assay: ITC
MepR (crystallization) = molecular target: T2, MepR (crystallization); assay: crystal structure

Binder	binding result (MepR WT)	binding result (MepR (crystallization))
B1	no binding	–
B2	no binding	–
B3	–	binds
